Biological target: T1, human heat shock protein Hsp90α (human, UniProt P07900 2-732)
T1 construct: Target protein of the dot blot assay
Experiment: dot blot assay, direct interaction with Hsp90α

B1: SNC1 (15aa) (peptide)
peptide: DEIVKELRSRYNIST
B1: no binding.

Source: EP4201483A1 (Eberhard-Karls-Universität Tübingen, dated 2023)
